Laboratory results published in the DeepSol protein solubility set.

assay: soluble on expression in E. coli; label from the status in PepcDB or PDB records

| Sequence | soluble on expression in E. coli |
| --- | --- |
| MSLDLPPGVVALVNGTRITQEQLDRAIAQSGAQANPQVAQALKQQLIARELFRQQAAKNPAYDKLPAVKQAMQEAHDAVITQAWLKDNIKPAPITEEQVKARYDAIVASLGDKEYKARVIQLGDDVTAAQVLAQLKQGGDFAKLAQQYSTAPNKVRGGDMDWVSFKVPVEEGKTQNLPLPLAREIAALGIGAASTAPVEVGSQRYIVKVEAARPTQVPGYDTVRPAIRQALETAELERVTVQVVGGLLKAAKIVQEGHHHHHH | soluble |
| MGVERIKAAFENGKKAFIPYVMGGDGGLEILKERIRFLDEAGASIVEIGIPFSDPVADGPTIQRAGKRALDSGVTVKGIFQALIEVRKEVQIPFVLMTYLNPVLAFGKERFIENCMEAGVDGIIVPDLPYEEQDIIAPLLREANIALIPLVTVTSPIERIKKITSESEGFVYAVTVAGVTGVRQNFKDEIHSYLEKVKSHTHLPVVAGFGISTKEHVEEMVTICDGVVVGSKVIELLENEKREEICEFIQATKQKEEA | not soluble |
| MGSDKIHHHHHHMDPRLLPLLSCPRHPTVTLTVEQVERVVNGAIVSGRLRCPVCATTYLIKDGILDMIGQHRPTSAAQVVNEVPVAAWAYERTWRPFALSLLSGEQFPLTRELKLITGLAGAERGGLMVDVGCSNGLYARALEHVRRQRGAGGFVVGIDLSMAMLQEAQRRARHEGLSISFIRASAQAMPFADGTVDALVMGGSLNEIGDIPAALSEWRRLLSPQGRGVMMSLVAASTPIGQGIQQLLASGGLQFPSLAELNHYFTAAGLRLRAQWQYGIVVFSVLQ | not soluble |
| MEKKITGYTTVDISQWHRKEHFEAFQSVAQCTYNQTVQLDITAFLKTVKKNKHKFYPAFIHILARLMNAHPEFRMAMKDGELVIWDSVHPCYTVFHEQTETFSSLWSEYHDDFRQFLHIYSQDVACYGENLAYFPKGFIENMFFVSANPWVSFTSFDLNVANMDNFFAPVFTMGKYYTQGDKVLMPLAIQVHHAVCDGFHVGRMLNELQQYCDEWQGGA | soluble |
| MGKFSKIKKVQEEESAHQKMEWEAAGAKDSSSDDSSDESDNDDQPKQATEETRKRAELWTNRERVLVLCSRGADVRTRYLMKDIKDLLPHAKGDSKLDQQKSLNVLNEIAEMKNCTKVMYFESRKRKDTYLWMSNVEKGPSIKFLVHNVHTMKELKMSGNCLRASRPVLSFDDAFDKKPQLKLIKAVLMQTLGTPHHHPRSQPFVDHVFNFSVGEGDKIWFRNFQIVDESLQLQEVGPRFVLEMVRLFAGSFEGAVLYDNPNYVSPNVIRREHRKGQHSYIEKQLAVKASNIKQAKVTEILAEKTVDLVGKEFDTQNNAAADSEAAAQITAQIEKRRVRKKKSQASKYTGSD | soluble |
| MKETEILNRAYNYMCTYHKDDATGHDIAHINRVLRLATYIAEQEQSQHMLTIQLASLLHDTVDSKLTNHEKALTKLKSFLKDLQLPKEQQQHILHIIKHISYRHGQNNEVSLTLEGQIVRDADRLDAIGAIGIARTFQFAGHFNEPMWVEHSTKHITETDDAHYDQWSPSAIKHFYEKLLKLKSLMHTETAKQLAAQRHQYMENFINQFFEEWYFLEHHHHHH | soluble |
| MPGGRGRIGVILPANNAGMEYDLWKMAPEGVSIHSTRMKPTKGCEPENVEEFEKELKYSYSLLAEVSDIIIYGRTYGTHKHAHVIKRVIKDVVIPEESVYELLKKLNVRKLWIGTPYIKERTLEEVEWWRNKGFEIVGYDGLGKIRGIDISNTPIFTIYRLVKRHLNEVLKADAVYIACTALSTYEAVQYLHEDLDMPVVSENAAAMWEALNKLKIKAKLPGF | soluble |
| MHIRTTTPVLTSLTSCNFGTASLGDTSPYCMALRPFPLGNTPLHAVIRRSAREFECVEAVPASNAVRSPSTASWVSAESLDSIISLANRTSEEMEVDQLIYRLCRSLYHVAKKKSAQIHCHPNHQERQQQQQQASSSGWRSVECEGHFSNMRGREDWCPLLHLFDPRSYYKVMGQPSQHDGCKLCGDVVGTESSPEGVSQWLMSELSVTRLTGGNSNHVYRLGHASFPKKAVLLRVYGDGGGGDVIDRARDIKVMRLMSKSEMGPGLLHTFHWGRVEEFMDGVLTCTTEKLLTSPSLLADVYGGLSKMHQLDYTPLLPENMRTKGMSNGHNSSQSVSDTVSKSGGGQEGPDGTVGGVNELESTCHTSFERVCLRLLRLVSLNVVEEHRHSLESWLAGEVMFVRRELQYRGIPVVLSHNDLNPGNILLSDGAGEASGTVFSDEELRVENTPLSKRYVTRKGKNMNLVERRGFLFIDFEYADANYRCFDLGNTLCELDYDYTRGTEAGGRGFIKYLFVFPPPAMEEAWRGLGEEYPRMPELIYDAWRRGVCDGSSDIGSVALLAVRRYFAERDNVPLETVELSEAQVGEVLLGMLASHLYWTIWSMTMGSAPDNCVECEDCDDQMFAVGGSGLDYMRYGECRLREYIALRGWLAEKGLLS | not soluble |
| MRLPCEVVFARYKANAGVNPKPTKSQKGFVILQKLRQTPPQYQITVAVAGDKTGNKFELNKPPIILDKFIAQGKTTITFQTTPAVMVCISKANPEALAQLIEAIRKIVKGENVDIEKVKVKSSDFKPTTITVNNQATYKKQMQSCSEFLKTLKIEPIDLRRPDKAWRFCHNLTRLTLNGNPIGAHNRDLDVFSKLKQLQSLEMRSCSLELIPVPAMCTMFRELPTSISLLDFGDNHLSIFPPIFHLKQLKIINAAHNAIKYLPSRIGVLQNLNTIDVSNNLMTALPYVFSKIPSIEHVGINANDQMVRLEEEIGPIFIRRLLTKVDNIEYTHEGGVDKLGTIAANAIHREECSKSMKFGRQFLPLSLRFDMDDLMFEKPGISSLELCTGCVRLRHIRYIRPLIIQSRQIANSVDVIGRFVTFDRLLCIDCYRRTTSTNNGEPPFQCDYFQFAV | not soluble |
| MGSDKIHHHHHHMTNKTNAASLDIVGIGNAIVDVLTTTDDSFLKKLSFDKGSMTLIDEKKAKELYEMTTNRIQKSGGSVANSLACVAQLGGKAAFIGRVRDDKLGEIFTEEISTTGTIFKTPPSSVGPSTARCIIFVTPDAQRTMCTYLGASVLLEPKDIDLSLVREAKILYLEGYLWDNPAAKNAFIKAAEIAKNAGRKVALSLSDSFCVSRHRESFIKLVEEHIDILFANEDEITNLYETSSLSNALEKLKKKCDLAAITIGEKGSILISNGKEIKIDPFILGKAIDTTGAGDLYAGAFLKGYADGLKPELSAKIGSICAGQIVTQLGSRSNTDLLNLINSHLEA | not soluble |
| MKVEEQYLQLFRENREAIDSHSPRVLNEQREKASMAFASKGLPRYGTENYQRTDLSELFGYDYGVNLNRVNFPIRQKEAFHCTLPDLDTDLCYIVNDAYDNEWSRVSELPEGAFVGSLSDFALSHPEIAARYYAQAAAPDHDGIIAFSTMFAQDGFIIYLPDGAVLKNPIQLVQLLRADMEIL | not soluble |
| GSHMPLSSENKQKLQKQVEFYFSDVNVQRDIFLKGKMAENAEGFVSLETLLTFKRVNSVTTDVKEVVEAIRPSEKLVLSEDGLMVRRRDPLP | soluble |
| MWLRDPFPRLYPDGDFQMACDRFFGNPYDSDNWVNGGFTYVRSNNRSIEFYKFWHKSRLDYPDLHDQDVFNRIKHEPFISEIGIQMRFFDTVYFGGFCQTSRDINLVCTMHANCCIGLDKKLHDLNLVLDDWRKYLSLSEPVQNTTWSVPMKCLED | not soluble |
| MSETFTSVSQEEAGFRERARLSFDLDADICVIGAGLAGLSIALEAARLGASVAVLEGRHIGWNASGNQLGTVMPGFALPLTDLIERIGFEDARELWTLSKEGAEFVRANATEENMPGIAPSDGVLEVSNVDTGDRLISRLQMLHEDFDTEVEGWQVDRVRDVLKTDRYFHGVYYPKAFQVDGRKYVHGLAALARRAGARIFEDTPVVSIDHSGIRKRIVTPSARLRATHIVLAGNIHLGAPLRRLSETLLPVWRYAGITAPLGERVHEIIAFKGSVMDSDGVDHFRIVDGDRLMWESPETTWAARPQRFAGGVRRRIRSIFPQFGNVEIADMFGGATGQTVHGMPQIGQLRKGLWVASGFGRQGMNTSAMAGQMIARSILWGDERWRLFSPFELVWAGGATGRVAGQLVGIWGRASSAAAGTLARYRERARVKDREREARLAEANRAAGTGPRRPPPGVRPRPAPPPKPATEALEPASHDDSVSQLEHHHHHH | not soluble |
| MGSDKIHHHHHHMYNLGKGVQECTETSLLTALGGMERRNLSELDTTLTSDNLPVVSHDFNTWRISTLPDRLIRELHSADVKNIPVIIREVSNGEITESYTVTNDIIPFLEPLLDKVFDVNPGATFFLDGRDFEAHIITAWLSRRPKYRQRVVLLFYTFEYSSGEAFFDAVKQVSPEPDWRETVALMPVIFPQELPRLAKLIDLSDIAVEDLYEGGKIWIDSMLRQPMRVVAVHIVMARVKPEQLGLCDKPEIVRAFNADYAAVRLAYYVKDNPEVRKMRPHLKLATATRCYDFSAQLENGEKAEFSINIRTGRPMPRETDERKYIRRGYGIPGNAAAIADWVISDRSEDEMSFWEWRNKGVPRRVDHHCPHLDVIEQDGKSVP | not soluble |
| MSQIEFKNVSKVYPNGHVGLKNINLNIEKGEFAVIVGLSGAGKSTLLRSVNRLHDITSGEIFIQGKSITKAHGKALLEMRRNIGMIFQHFNLVKRSSVLRNVLSGRVGYHPTWKMVLGLFPKEDKIKAMDALERVNILDKYNQRSDELSGGQQQRISIARALCQESEIILADEPVASLDPLTTKQVMDDLRKINQELGITILINLHFVDLAKEYGTRIIGLRDGEVVYDGPASEATDDVFSEIYGRTIKEDEKLGVN | not soluble |
| GMAYEQFAYVYDELMQDVPYPEWVAWVLEQVEPGKRIADIGCGTGTATLLLADHYEVTGVDLSEEMLEIAQEKAMETNRHVDFWVQDMRELELPEPVDAITILCDSLNYLQTEADVKQTFDSAARLLTDGGKLLFDVHSPYKMETLFNGKTYATHAEQSSYIWFADPGEEPLSVVHELTFFIEGEDGRYDRVDETHHQRTYPPEQYITWLREAGFRVCAVTGDFKSDAPTETAERIFFVAEKI | soluble |
| MGSDKIHHHHHHENLYFQGMKKVFITTGTEHYLRQLMENYIGENVTLLQNFSQSLLYQESTGEKLFQEGKEYRVLQSSGSLKGFGIVVFEYIQLRDEEIPIFLQMYQHASLHFSETPGLQSTKLTKAMNTNQFLIVSFWDSEVFFQEWKKTPLHKEITSIMKKNNTQVGFSHEDIYHYPEFSHDAK | soluble |
| MGSDKIHHHHHHMDNAIVTSPSGSSPAEAQAFLDAHPEIEAFDIVLTDANGVGRGKIVRRHELKSIFEGGRHMPISILGLDITGEDVHETGLIWTTGDGDLRAWPIPGTLVPLYGTNPPRGQVLMAMYHLDGQPMSSDPRLALARQVDILAAKGLYPAGAFELEFFLLANERDADGKVQPARAVLDGRVSGKTEVYSVDHLHGMEPLFSDIYAAAKAQGIPAETVISEYAPGQYELTLNYRKDVMRAADDLVMLKRLVRAQARRHGVTACFMAKPIEKYAGSGMHFHVSLQDKAGRNVFAEAGGESWSLPLLQGLGGLIQTMAESMLVFAPHANSWRRFVSQSYAPVAPTWGVNNRSVALRVPAGDAKNRRIEHRPSGVDANPYLIAATVLAGIVKGLDEGLDPGPETTGNGYEAAVTRTTMPADWRAAIEAAKASSFLKGALGEDLHRTFVAIKQSEYLRVARTVSELDYHLYLHEV | not soluble |
| MQVTYKGRPIRITPDFSPETMKARRAWTDVIQTLREHKCQPRLLYPAKLSITIDGETKVFHDKTKFTQYLSTNPALQRIITEKKQYKD | soluble |
| MGSDKIHHHHHHMTQEDKKLSCTDCALLNCHKKDKTFPQFCLTTHTPEETIEGVNELYRKDDFVAKLSNAAAEIEGTYYGKLTRVEEIMAFAKRIGAKKIGIATCVGLMSEARIFAKILKAKGLESYGIICKVGAVDKTQVGVPEELKVNKGCHESLCNPVLQATLLNEEKTDLNVIVGLCVGHDSLFIKYSEAPVTTLITKDRVLGHNPAAALYASGFYYRRLLQEGDL | not soluble |
